Data: the RNAGym collection of RNA variant scans (doi:10.1073/pnas.2313332121)
This sample holds only a part of the variants without activity.

B1: TPR 5TU (parent)
chain: GGAUCUUCUCGAUCUAACAAAAAAGACAAAUCUGCCACAAAGCUUGAGAGCAUCUUCGGAUGCAGAGGCGGCAGCCUUCGGUGGCGCGAUAGCGCCAACGUUCUCAACUAUGACACGCAAAACGCGUGCUCCGUUGAAUGGAGUUUAUCAUG

Variants of: B1
Assay: polymerase ribozyme fitness, log enrichment relative to wild type (log ratio); higher = more active; in vitro selection for triplet polymerase activity
Summary of the method: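 Streptavidin-bead capture of gel-excised extended constructs, followed by RT-PCR, closed a single triplicate in vitro selection round. That round began by annealing PCR-built, transcribed mutant libraries of each subunit of a heterodimeric triplet polymerase ribozyme with a biotinylated primer, the partner subunit and triplets, then incubating them frozen at −7 °C. After Illumina sequencing of inputs and outputs, genotypes needed ≥10 input reads and ≥1 read per output. Fitness is the base-2 logarithm of genotype enrichment over wild-type enrichment, using inverse-variance-weighted replicate averages.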

Variant | polymerase ribozyme fitness (log ratio)
GGAUCUUCUCGAUCUAACAAAAAAGCCAAAUCUGCCACAAAGCUUGAGAGCAUCUUCGGACGCAGAGGCGGCAGCCUUCGGUGGAGCGAUAGCGCCAACGUUCUCAACUAUGACACGCAAAACGCGUGCUCCGUUGAAUGGAGUUUAUCAGG [A26C U61C C85A U151G] | ≤ -4.2
GGUCCUUCUCGAUCUAACAAAAAAGACAAAUCUGCCACAAAGCUUGAGAGCAUCUUCGGAUGCAGAGGCGGCAGCCUUCGGUGGCGCUAUAUCGCCGACGUUCUCAACUAUGACACGCAAAACGCGUGCUCCGUUGAAUGGAGUUUAUCAUG [A3U U4C G88U G92U A97G] | ≤ -4.2
GGAUCUUCUCGAUCUAACAAAAAAGACAAAUAUGCCACAAAGCUAGAGAGCAUCUUCGGAUGCAGAGGCGGCAGCCUUCCGUGGCGGGAGAGCGCCAACGUUCUCAACUAUGACACGCAAAACGCGUGCUCCGUUGAAUGGAGUUUAUCAUU [C32A U45A G80C C87G U90G G152U] | ≤ -4.2
GGAUCUUCUCGAUCUAACAAAAAAGACAAAUCUGCCAAAAAGCUUGAGAGCAUCUUCGGAUGCAGAGGCCGCAGCCUUCGGUGGCGCGAUAGCGCCAACGUUCUCAACUAUGACACGCAAAACGCCUGCUCCGUUGAAUGGAGUUUAUCAUG [C38A G70C G126C] | -3.53
GGAUCUUCUCGAUCUAACAAAAAAGACAAAUCUGCCACAAAGCUUGAGAGCAUCUUCGGAUGCAGAGGCGGCAGCCUUCGGUGGCGCGAUAGCGCUAACGUUCUCAACUAUGACACGCAAAACGCGUUCUCCGUUGAAUGGAGUUUAUCAUG [C96U G128U] | -3.45
GGAUCUUCUCGAUCUAACAAAAAAGACAAAUCUGCCACAAAGCUUGAGGGCAUCUUCGGAUGCAGAGGCGGCAGCCUUCGGUGGCGCGAUUGCGCCAACGUUCUCAACUAUGACACGCAAAACUCGUGCUCCGUUGAAUGCAGUUUAGCAUG [A49G A91U G124U G141C U148G] | ≤ -4.2
GGAUCUUCUCGAUCUAACAAAAAAGACAAAUCUGCCACAAAGCUUGAGAGCAUCUUUGAAUGCAGAAGCGGCAGCCUUCGGUGGCGCGAUAGGGCCAACGUUCUCAACUAUGACACGCAAAACGCGUGCUCCGUUGAAUGGAGUUUAUCAUG [C57U G59A G67A C93G] | ≤ -4.2
GGAUCUUCUCGAUCUAACAAAAAAGACAAAUCUGCAACAAAGCUUGAGAGCAUCUUCGGAUGCAGAGGCGGCAGCCUUCGGUGGCGCGAUAGCGUCAACGUUCACAACUAUGACACGGAAAACGCGUGCUCCGUUGAAUGGAGUUUAUCAUG [C36A C95U U104A C118G] | ≤ -4.2
GGAUCUUCUCGAUCUAACAAACAAGACGAAUCUGCCACAAAGCUUGACAGCAUCUUCGGAUACCGAGGCGGCAGCCUUCGGUGGUGCGAUAGCGCCAACGUUCUCAACUAUGACACGCAAAACGCGUGCUCCGUUGAAUGGAGUUUAUCAUG [A22C A28G G48C G62A A64C C85U] | ≤ -4.2
GGAUCUUCUCGAUCUAACAAAAAAGACAAAUCUGUCACAAAGCUUGAGAGCAUCUUCGGAUGCAGAGUCGGCAGCCUUCGGUGGCGCGAGAGCGCCAACGUUCUCAACUAUGACACACAAAACGCGUGCUCCGUUGAAUGGAGGUUAUCAUG [C35U G68U U90G G117A U144G] | ≤ -4.2
GGAUCUUCUCGAUCUAACAAAAAAGACAAAUCUGCCACAAAGCUUGAGAGCAUCUUCGGAUGCAGAGGCGGCAGCCUUCGGUGGUGCGAUAGAGCCAACGUUCUCAACUAUGACACGCAAAACGCGUGCUCCGUUGAAUGGAGUUUAUCAUG [C85U C93A] | -2.72
GGAUCUUCUCGAUCUAACAAAAAAGACAAAUCUGCCACAAAGCUUGAGAGCAUCUUCGGAUGCAGAGGCGGCAGCCUUCGGUGGCGCGAUAGCCCCAACGUUCUCAACUAUGACACGCAAAACGCGUGCUUCGUGGAAUGGAGUUUAUCAUA [G94C C131U U135G G152A] | -3.32
GGAUCUUCUCGAUCUAACAAAAAAGACAAAUCUGCCACAAAGCUUGAGAGCAUCUACGGAUGCAGAGGCGGCAGCCUUCGGUGGCGUGAUAGCGCUAACGUUGUCAACUAUGACACGCAAAACGCGUGCUCCGUUGAAUGGAGUUUAUCAUG [U56A C87U C96U C103G] | -3.09
GGAUCCUCUCGAUCUAACAAAAAAGACAAAUCUGGCACAAAGCUUGAGAGCAUCUUCGGAUGCAGGGGCGGCAGCCUUCGGUGGCGCGAUAGCGCUAACGUUCUCAACAAUGACACGCAAAACGCUUGCUCCGUUGAAUGGAGUUUAUCAUG [U6C C35G A66G C96U U109A G126U] | ≤ -4.2
GGAUCUUCUCGAUCUAACAAAAAAGACAAAUCUGCCACAAAGCUUGAGCGCAUCUUCGGAUGCAGAGGCGGCAGCCUUCGGUGGCGCGAUAGCGCUAACGUUCUCAACUAUGACACGCAAAACGCGUGCUCCGUUGAAUGGAGUUUAUCAUG [A49C C96U] | -3.23
GGAUCUUCUCGAUCUAACAAAAAAGACAAAUCUGCCACAAAGCUUGAGAGCAACUUCGGAUGCAGAGGCGGCAGCCUUCGGUGGCGCGAUAGAGGCAACGUUCUCAACUAUGACACGCAAAACGCGUGCUCCGUUGAAUGGAGUUUAUCAUG [U53A C93A C95G] | ≤ -4.2
GGAUCUUCUCGAUCUAACAAAAAAGACAAAUCUGCCACAAAGCUUGAGAGCAUCUUCGUAUGCAGAGGCGGCAGCCUUCGGUGGCGAGAUAGCGCCUACGUUCUCAACUAUGACACGCAAAACGCGUGCUCCGUUGAAUGGAGUUUAUCAUG [G59U C87A A97U] | ≤ -4.2
GGAUCUUCUCGAUCUAACAAAAGAGACAAAUCUGCCACAAGGCUUGAGAGCAUCAUCGGAUGCAGAGGCGGCAGCCUUCGGUGGCGCGACAGCGCGAAAGUUCUCAACUAUGACACGCAAAACGCGUGCUCCGUUGAAUGGAGUUUAUCAUG [A23G A41G U55A U90C C96G C99A] | ≤ -4.2
GGAUCUUCUCGAUCUAACAAAAAAGACAAAUCUGCCACAAAGCUUGAGAGCAUCUUCUGAUGCAGAGGCGGCAGCCUUCGGUGGCGCGAUAGCGCCGACGUUCUCAACUAUCACACGCAAAACGCGUGCUCCGUUGAAUGGAGUUUAUAAUG [G58U A97G G112C C149A] | ≤ -4.2

Variant | polymerase ribozyme fitness (log ratio)
GGAUCUUCUCGAUCUAACAAAAAAGACAAAUCUGCCACAAAGCUUGAGAGCAUCUUCGGAUGCAGAGGCGGCAGCCUUCGGUGGUGCGAUAGCGCCAACGUUCUCAACUAUGACACGCAGAACGCGUGCUCCGUUGAAUGGAGUUUAUCCUG [C85U A120G A150C] | -3.75
GGAUCUUCUCGAUCUAACAAAAAUGACAAAUCUGCCACAAAGCUUGAGAGCAUCUUCGGAUGCAGAGGCGGCAGCAUUCGGUGGAGCGAUAGCGCCAACGUUCUCAACUAUGACACGCAAAACGCGUGCUCCGUUGAAUGGAGUUUAUCAUG [A24U C76A C85A] | -1.65
GGAUCUUCUCGAUCUAACAAAAAAGACAAAUCUGCCACAACGCUUGAGAGCAUCUUCGGAUGCAGAGGCGGCAGCCUUCGGUGGCUCGAAAGCGCCAACGUUCUCAACUAUGACACGCAAAACGCGUGACCCGUUGAAUUGAGUUUAUCAUG [A41C G86U U90A C129A U130C G140U] | ≤ -4.2
GGAUCUUCUCGAUCUAACAAAAAAGACAAAUCUGCCACAAAGCUUGAGAGCAUCUUCGGAUGCAGAGGCGGCAGCCUUCGGUGGCGCGGUAGCGACAACGUUCUCAACUAUGACACGCAAAACGCGUGCUCCGUUGCAUGGAGUUUAUCAUG [A89G C95A A137C] | -4.09
GGAUCUUCUCGAUCUAACAAAAAAGACAAAUCUGCCACAAAGCUUGAGAGCAUCUUCGGAUGCAGAGGCGGCAGCCUUCGGUGGCCCGAUAGCGCCAACGUUCUGAACUAUGACACGCAAAACGCGUGCUCCGUUGAAUGGAGUUUAUCAUG [G86C C105G] | -3.67
GGAUCUUCUCGAUCUAACAAACAAGACAAAUCUGCCACAAAGCUUGAGAGCAUCUUCGGAUGCAGAGGCGGCAGCCUUCGGUGGCGCGAUAGCGCUAACGUUCUCAACUAUGACACGCAAAACGCGUGCUCCGUUGAAUGGAGUUUAUCAUG [A22C C96U] | -0.0389
GGAUCUUCUCGAUCUAACAAAAAAGACAAAUCUGCCACAACGCUUGAGAGCCUCUUCGGAUGCAGAGGCGGCAGCCUUCGGUGGCGCGAUAGCGCCAACGUUCUCAACUAUGACACGCAAAACGCGUGCUCCGUUGAAUGGAGUUUAUCAUG [A41C A52C] | -1.97
GGAUCUUCUCGAUCUAACAAAAAAGACAAAUCUGCCACAAAGUUUGAGAGCAUCUUCAGAUGCAGAGGCGGCAGCCUUCGGUGGCACGAGAGCGCCAACGUUCUCAACUAUGACACGCAAAACGCGUGCUCCGUUGAAUGGAGAUUAUCAUG [C43U G58A G86A U90G U144A] | ≤ -4.2
GGAUCUUCUCGAUCUAACAAAAAAGACAAAUCUGCCACAAAGCUUGAGAGCGUCUUCGGAUGCAGAGGCGGCAGCCUUCGGUCGCGCGAUAGCGCCAACGUUCUCAACUAUGACACGCAAAACGCGUGAUCCGUUGAAUGGAGUUUAUCAUG [A52G G83C C129A] | -2.88
GGAUCUUCUCGAUCUAACAAAAAAGACAAAUCUGCCACAAAGCUUGAGAGCAUCUUCGGAUGCAGAGGCGGCAGCCUUCGGUGGCGCGAUUGCGCCAACGUUCUCAACUAUGACACGCAAAACGCGUGCUCCGUUGAAUGGAGUUUACCAUG [A91U U148C] | -4.1
GGAUCUUCUCGAUCUAACAAAAAAGACAAAUCUGCCACAAUGCUUGAGAGCAUCUUCGGAUGCAGAGGCGGCAGCCUUCGGUGGCACGUUAGCGCCAACGUUCUCAACUAUGAUACGCAAAACGCGUGCUCCGUUGAAUGGAGUUUAUCAUG [A41U G86A A89U C114U] | -4.16
GGAUCUUCUCGAUAUAACAAAAAAGAGGAAUCUGCCACAAAGUUUGAGAGCAUCUUCGGAUGCAGAGGCGGCAGCCUUCGAUGUCGCGAUAGCGCCAACGUUCUCAACGAUGACACGCAAAACGCGUGCUCCGUUGAAUGGAAUUUAUCAUG [C14A C27G A28G C43U G81A G84U U109G G143A] | ≤ -4.2
GGAUCUUCUCGAUCUAACAAAAAAGACAAAUCUGCCACAAAGCUUGAGAGCUUCUUCGAAUGCAGAGGCGGCAGCCUUCGGGGGCGCGAUAGCGCCAACGUUCUCAACUAUGACACGCAAAACGCGUGCUCCGUUGAAUGGAGUACAUCAUG [A52U G59A U82G U145A U146C] | -0.208
GGAUCUUCUCGAUCUAACAAAUAAGACAAAUCUGCCACAAAGCUUGAGAGCAUCUUAGGAUGCAGAGGCCGCAGCCUACAGUGGCGCGAUAGCGCCAACGUUCUCAACUAUGACACGCAAAACGCGUGCUCCGUUGAAUGGAGUUUAUCAUG [A22U C57A G70C U78A G80A] | ≤ -4.2
GGAUCUUCUCGAUCUAACAAAAAAGACAAAUCUGCCACAAAGCUAGAGAGCAUCUCAGGAUGGAGAGGCGGCAGCCUUCGGUGGCGGCAUAGCGCCAACGUUCUCAACUAUGACACGCAAAACGCGUGCUCCGUUGAAUGGAGUUUAUCAUG [U45A U56C C57A C63G C87G G88C] | ≤ -4.2
GGAUCUUCUCGAUCUAACAAAUAAGACAAAUCUGCCACAAAGCUUGAGAGCAUCUUCGGAUGCAGAGGCGGCAGCCUUCGGUGGCGCGAUAGCGCCAACGUUCUCAACUAUGACACGCAAAACACGUGCUCCGUUGAAUGGAGUUUAUCAUG [A22U G124A] | 0.0485
GGAUCUUCUCGAUCUAACAAAAAAGACAAAUCUGCCACAAAGCUUGCGAGCAUCUUCGGAUGCAGAGGCGGCAGCCUUCGGUGGAGCGAUAGCGCCAACGUUCUCAACUAUGACACGCAAAACGCGUGCUCCGUUGAAUGGAGUUUAUCAUG [A47C C85A] | -2.92
GGAUCUUCUCGAUCUAACAAAAAAGACAAAUCUGCCACAAAGCUUGAGAGCAUCUUCGGAUGCAGAGGCGGCAGCCUUCGGUGGCGCGAUAGCGCCAGCGUUCUCAACUAUGACACGCUAAACGAGUGCUCCGUUGAAUGGAGUUUAUCAGG [A98G A119U C125A U151G] | ≤ -4.2
GGAUCUUCUCGAUCUAACAAAAAAGACAAAUCUGCCACAAAGCUUGAGAGCAUCUUCGUAUGCAGAGGCGGCAGCCUUCGGUGGCGCGAUAGCGCCAACGUUCUCAACUAUGACACGCAAAACGCGUGCUCAGUUGAAUGGAGUUUAUCAUG [G59U C132A] | -2.09
